# Assay results as given in paper PMC9719739.
# Molecular target: CaV1.2 C-terminal domain, residues 1520-1669 (two channel EF-hand motifs, pre-IQ and IQ-motif) (rabbit) (UniProt P15381)
# Test: SEC
# UniProt P15381, sequence (P15381 1520-1669): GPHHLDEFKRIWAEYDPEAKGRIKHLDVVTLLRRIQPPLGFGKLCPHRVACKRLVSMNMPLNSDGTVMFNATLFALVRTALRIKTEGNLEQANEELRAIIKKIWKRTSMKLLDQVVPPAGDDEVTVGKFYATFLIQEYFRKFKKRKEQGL
substance,measurement,value
Calmodulin (from UniProt P0DP23 1-149) (natural protein),stoichiometry N (CaM per CT(1520-1669) (4:4)),1
